Experimental data as given in the supplement of paper PMC6757056.
± gives the standard deviation of the averaged measurements.

B1: library; a variant is named by its letters at N, in order (parent)
chain: GCUGUCACCGGUGCUUGGUACGUUAUAUUCAGCCGGUCUGAUGAGUCUNNNNNNAGACGAAACAGC

Experiments:
[1] = variants of: B1; test: normalized RNA/DNA level without ligand (relative to sTRSVctl = 100) (log10 (% of sTRSVctl)); HEK293T overexpressing SLC46A1; higher = less ribozyme self-cleavage, higher mRNA level; conditions: without (6R,S)-folinic acid; ligand present: no
Procedure, shortened: (§1)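 Total RNA, extracted with EDTA 72 h after HEK293T cells were transfected with 4 µg per 6-well well of reporter-linked ribozyme switch library plasmids, was reverse-transcribed, amplified, barcoded and sequenced. Ligand, if used, was added 1 h before transfection. RNA level was derived from RNA reads divided by DNA reads and normalized to a spiked-in non-cleaving sequence or to the top sequences. This was multiplied by 100 and log10-transformed, with the top set of 25 sequences and a ≥100 DNA read minimum.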

[2] = variants of: B1; test: normalized RNA/DNA level with ligand (relative to sTRSVctl = 100) (log10 (% of sTRSVctl)); HEK293T overexpressing SLC46A1; ligand concentration (+) RNA-Seq: 6 mM; higher = less ribozyme self-cleavage, higher mRNA level; conditions: with (6R,S)-folinic acid; ligand present: yes
Procedure, shortened: as §1

Row | Variant | normalized RNA/DNA level without ligand (log10) [1] | normalized RNA/DNA level with ligand (log10) [2]
1 | GAGUCU | 2.0246 ± 0.001 | 2.02 ± 0.027
2 | GAGUCG | 1.984 ± 0.019 | 2 ± 0.034
3 | CAGUCA | 1.967 ± 0.0097 | 1.96 ± 0.058
4 | CAGUCU | 2.018 ± 0.0006 | 2.03 ± 0.038
5 | CAGUCC | 2.051 ± 0.011 | 2.04 ± 0.037
6 | GAGAGC | 1.945 ± 0.01 | 2.03 ± 0.042
7 | UAGACC | 2.039 ± 0.0018 | 2.013 ± 0.016
8 | GAGCAA | 1.96 ± 0.025 | 2 ± 0.049
9 | AAGAAU | 1.95 ± 0.0044 | 2.011 ± 0.014
10 | AAGCAC | 2.022 ± 0.0075 | 1.98 ± 0.045
11 | AAGCAG | 1.925 ± 0.0059 | 2 ± 0.045
12 | UACUCC | 2.051 ± 0.012 | 2.034 ± 0.0051
13 | UACUCG | 1.8448 ± 0.00067 | 1.99 ± 0.031
14 | UACUCA | 1.9962 ± 0.00016 | 1.98 ± 0.038
15 | UACUCU | 2.027 ± 0.0077 | 2.05 ± 0.028
16 | GAUAAG | 1.917 ± 0.0057 | 2 ± 0.033
17 | CAGGGG | 1.87 ± 0.049 | 1.996 ± 0.016
18 | CAGGGC | 1.994 ± 0.013 | 2.03 ± 0.046
19 | CAGGGA | 1.962 ± 0.005 | 2 ± 0.029
20 | CAGGGU | 1.974 ± 0.014 | 2 ± 0.031

Row | Variant | normalized RNA/DNA level without ligand (log10) [1] | normalized RNA/DNA level with ligand (log10) [2]
21 | CACUUU | 1.985 ± 0.013 | 1.98 ± 0.036
22 | CACUUG | 2.032 ± 0.0036 | 2.03 ± 0.0041
23 | CACUUA | 1.952 ± 0.0058 | 1.97 ± 0.058
24 | CACUUC | 2.04 ± 0.03 | 2.026 ± 0.012
25 | AAUAGC | 1.985 ± 0.013 | 2 ± 0.058
26 | UACUGA | 1.9244 ± 0.0015 | 2.03 ± 0.034
27 | UACUGU | 1.936 ± 0.0083 | 1.98 ± 0.02
28 | CAGGAU | 1.9357 ± 0.0006 | 1.97 ± 0.049
29 | CAGGAG | 1.92 ± 0.022 | 2.03 ± 0.03
30 | CAGGAA | 1.928 ± 0.0064 | 1.99 ± 0.05
31 | CAGCUA | 2.02 ± 0.0022 | 2.04 ± 0.022
32 | CAGCUU | 1.987 ± 0.0035 | 2.01 ± 0.026
33 | CAGCUC | 2.05 ± 0.023 | 2.035 ± 0.013
34 | CACUGU | 2.057 ± 0.0081 | 2.056 ± 0.011
35 | CACUGC | 2.057 ± 0.016 | 2.05 ± 0.032
36 | GAGCUU | 2.051 ± 0.011 | 2.04 ± 0.064
37 | GAGCUG | 2.087 ± 0.0096 | 2.07 ± 0.051
38 | GAGCUC | 2.07 ± 0.011 | 2.05 ± 0.041
39 | GAGGAA | 1.952 ± 0.0031 | 2.01 ± 0.03
40 | GAGGAC | 1.947 ± 0.013 | 2.014 ± 0.016

Row | Variant | normalized RNA/DNA level without ligand (log10) [1] | normalized RNA/DNA level with ligand (log10) [2]
41 | GAGGAG | 1.9 ± 0.013 | 2.031 ± 0.017
42 | AAGCCC | 2.0608 ± 0.0014 | 2.04 ± 0.039
43 | AAGCCA | 2.009 ± 0.0029 | 2.03 ± 0.022
44 | AAGCCG | 1.988 ± 0.0067 | 2.01 ± 0.041
45 | CACUAG | 1.949 ± 0.01 | 2.02 ± 0.034
46 | CACUAU | 1.962 ± 0.0042 | 2.01 ± 0.03
47 | CACUAC | 2.0166 ± 0.00023 | 2.01 ± 0.074
48 | CACUAA | 1.961 ± 0.01 | 2.0172 ± 0.0006
49 | CAGUUG | 2.041 ± 0.0043 | 2.06 ± 0.013
50 | CAGUUU | 1.989 ± 0.011 | 2.03 ± 0.039
51 | GAGUAU | 1.982 ± 0.0044 | 2.014 ± 0.02
52 | GACGUU | 2 ± 0.022 | 2.01 ± 0.045
53 | GAUACC | 2.003 ± 0.0086 | 2.026 ± 0.0083
54 | GAUACU | 2.001 ± 0.0036 | 2.01 ± 0.036
55 | AAUACG | 1.934 ± 0.0037 | 1.99 ± 0.056
56 | AAUACA | 1.998 ± 0.014 | 1.995 ± 0.015
57 | UAGCUC | 2.08 ± 0.017 | 2.0396 ± 0.002
58 | UAGCUA | 1.9994 ± 0.0013 | 2.03 ± 0.048
